Experimental data reported in the DeepSol protein solubility set.

Assay: soluble on expression in E. coli; label from the status in PepcDB or PDB records

| Sequence | soluble on expression in E. coli |
| --- | --- |
| MGGPEKNSTVPLPNKKRKKKTNKKKPTAPNTPTSPQAGEKNANLKNGTVTTNGSNHVERLAGRAVHSLSAIDYSGITNDVEAGGSFSLTDVFPTVIFMFVVLFCRWLNGFSQHRERLYKFEDEAVQRRRRFRVHSEESEELNDHESYSETDICTQLLASSADVTCHINVDLVNQNRFYFFVKQRNKKENSTNEEEEISSQEINTSTQNEETEVNLVFASAEDNGGVASNFDISDALMVTSNISEVSKLPETLCEEGETVQQKSVVNENDHSNEDDEQSLQSQDGSRCSDEDMNSCVSASDEEDVESQDDSFHVNDATEESIDSVSSIESQEAEESATEDLASCHSNDDKNEKDVLVDEDTSKYDNLPVEMRSAKEGEESEGTIDSSVSSSTSSSSTGDDGDDSATSYDSEDIEIQMFEYDLGTACASASISIPRPSIIPRNNKKTEVNANEERLDDLSVSPGRSDSPGGGGGGHSDSFQDPMDPGEQLGSDDEEQEDPRDYKRGGYHPVNIGDVFNARYHVIRKLGWGHFSTVWLAWDTQDKRFVAMKIVKSAEHYTEAALDEIKLLLSVRSADPNDIGCHKVVQLLDEFTVTGINGQHVAMVFEVLGCNLLKLIIRSNYRGLHLEQVRKICRQVLEALGYMHEKCGIIHTDIKPENVLITMSREEIKIMAQHAVVARKMNMKMSGSAVSTAPDHLVKMAQENMTKNKKKKMKKKAKKQREKLEAELAGLEGLKMDANGLQEAYNNAPELENFNASQVEDVTMEDTVNENGNRNKVEIRSPDRFDRTTLTPFSDPESKFGDLASPSAEYLSSPMSQLPPGGILPAPPVGPNIGDPYCDIDVKIADLGNACWVNHHYTDDIQTRQYRALEVLIGSGYGPPADIWSTACMAFELATGDYLFEPHQGDNYSRDEDHLAHISELLGAIPPSIYKKGKHWREFFHKNGHLLHIHQLKPWSLYEVLRQKYEWSHEDAQQFESFLRPMLDFDQEKRSTAKIALKHPFLLPFGGRAPKSDCPPELLSKMFPDGLIPEPFDGNEHQEVYRDENDSRSASERSANSRSAGGSDDDDEEEFNMNRPGPSGHFPIFCSRVFTFMF | soluble |
| MAHHHHHHSLTTVGLELINVSSSWDEGIVELFEKIKRENKANGQLTGDDGLFFTNLYVTPVLKNINLRLEEGMMLAVAGSTGSGKSSLLMMILGELVPSEGKIRHSGRISYSPQTSWIMPGTIRDNILFGLTYDEFRYTSIIRACQLEEDLDLLPEKDKTAIAEGGVTLSGGQRARICLARAVYKDADLYLLDAPFTHLDIATEKEIFDKCVCKLIASKTRVVVTSKLEHLKRADRILLLHNGDCYFYGTFSELQAQRPDFSSLLLGLGSYDNISAERRSSILTETLRRVSVDETAGFRGEG | soluble |
| MIIEFEEKLLDLIDAQVVNASSDELFAGGYLRGHISLSAAQCEEEGITELDVLKQRIEQSLEAARSELSPADRAIVAELWQQLAAQA | not soluble |
| MISVVIPAKDEVGNIGPLMKEICQALQGVTEFEILVVDDGSQDDTFGEVIHTAELMLCNAKAIRHERSTGQSTAISTGVLHARGQYIVTLDADGQNDPADIPAMLAQLPQIHAEHFCIAGYRKNRKDTAWKRFQSRFANKVRDALLHDGVPDTGCGLKLFPRETFLRMPYFDHMHRYIPALVRRMGGEVFISVVNHRDRQLGVSKYTAWNRVWVGIVDIMGVIWLGRRAKIAKVARSETRWHDLEHHHHHH | soluble |
| MSNKGGGQRSGEIGVDELWTVYKSFIRETGLARQHLDSFNRLVTQEIQKIIDSIREVRPQWRIYAGRRRYRRGRFEEHEIHLPDVKIVFGKARFKEPMAREVIESFDRRVTPFECRVRGITYSAPLMVEMTIVQDNMIEKTREVKIADFPVMVKSVLDPLSKYDEETVIEMGEDPGDPGGYFIINGSEKVIVAQEDLAVNRIIVNKSTAATARITHTAKAVSTVLGLRRQAIVDRMSDGTLEASLSRLRYRIPLVVLLRALGLEKDMEIMLAVSADPDVQREMLPSLEKGRALAPTKEDALKYLGNRIAPGQPLDVRIRRAEEFLDTQLLPHLGNRPEDRIKKAYFLAEMANRVLQLYLGKRGEDDKDFLGNKRLRLAGDLIAELFRESLEALANTMAQKLEEQLAERRQIRLDFLVRPTIISDRLKGAIATGNWGQDRTGISQQLDRTNWISLLSHLRRVISPLSRGQAHFEARDLHGSHWGRYCPFETPEGINCGLVKNLALSAYISVGVDESVVEEILVKDLGVAPLERILEEAKQAGEPPEIMLKGTKVFINGRPLGYHPNGAELARKIRELRRSDKLEVERPWEVSVYHLREGEIDELYVNTDSGRLMRPVVVVENGEPKLTREHVEKLSRGEITFWDLVKQGVVEMLDPEEEQNALIAELPWEVTKEHTHMELWVPAIVGVAAATIGYLEHNQSPRNTYQAAMAKQALGVYALNYRIRLDSHSYLLQYPQVPIVQTRMLDIMGYNERPAGQNMVVAIMSYTGYNIEDALIFNKGSIDMGLARAYFFRVYTGIENEYPGGERDRITLPKPDEVYDYRGAAAYAKLEADGIVAPETEVEGGEILIGRVSPPRFLGEGRVISMATVRRRDTSIPMRLGEKGVVDMVVISTTVERNKLVKVRVRNLRIPEIGDKFASRHGQKGVIGMIFPRYDMPYTEEGIEPDVILNPHAIPSRMTVGQLLEEIAGKLGAIKGRFVDATPFFKEDIDGLRIELLKEGYDPNAREVMYDGRTGQIIEAPITIGVAYYQRLYHMVADKIHARATGRVHLLTRQPTEGKARQGGLRFGEMERDCLVGHGASMLLRDRMLDNSDAYVMYVCNTCGNIAWFNRRKKVLECPIHGEEGDIRPVKVPYAFKLLLQEITSMMIKPELKVADKISVIRKVVGDYT | soluble |
| MANSITADEIREQFSQAMSAMYQQEVPQYGTLLELVADVNLAVLENNPQLHEKMVNADELARLNVERHGAIRVGTAQELATLRRMFAIMGMYPVSYYDLSQAGVPVHSTAFRPIDDASLARNPFRVFTSLLRLELIENEILRQKAAEILRQRDIFTPRCRQLLEEYEQQGGFNETQAQEFVQEALETFRWHQSATVDEETYRALHNEHRLIADVVCFPGCHINHLTPRTLDIDRVQSMMPECGIEPKILIEGPPRREVPILLRQTSFKALEETVLFAGQKQGTHTARFGEIEQRGVALTPKGRQLYDDLLRNAGTGQDNLTHQMHLQETFRTFPDSEFLMRQQGLAWFRYRLTPSGEAHRQAIHPGDDPQPLIERGWVVAQPITYEDFLPVSAAGIFQSNLGNETQTRSHGNASREAFEQALGCPVLDEFQLYQEAEERSKRRCGLLLEHHHHHH | soluble |
| MGSDKIHHHHHHMIEHFNPWWKGREGIEEDEDYRKWIGSEVRWVPEVIKKISLEPFSLNIIFGPRQVGKTTLLKLIVKKLLDEGKNPRSIFYLRCDYISDYKELMNVIDEYLEIKETEGIKSSYILLDEVTFPKEWFRAIKLYIDMGKFRNDVLILTGSTSMYTKGEVETFPGRRGKGKDAVMLPLTFREFIKIASPKLHSVLPRINSLNKVEECLKAIPFIEELNSLFKLYLISGGFPRAVKDLLKHNKVSEETYETYISWMRGDILKLGKSEEVARRIMKTIIKKLPSPVSWHGIAKEIDIGSHKTVFSYIELFERMFLIRVLPYIDPDKLEADFKREKKVHLIDPFLYHLVSRWTLTEEPSEDKIVESVVATHVARRYEVGYWRDGREIDVVTREGVGIEVKWSDNVKVSPVKVGKIRKVITLSKSKFSRDPLVIPVSVFLSCI | not soluble |
| MERSLYSPDLRIPPANIHNNHLKIDTDRKIRFAITHPEIKKAKGTIVILESYANALEEYFLPMNEISNRGFYTAIFDWFGREESQPDKQKQSRYNYFNINNDINDLNEFLKNIVYCNCPPPYYMLTYGMGGLIALSGLDLINHKFNKMLCISPLFAPFGNKTNSFQHKLTQLLSDIGLGFLPAKGGEKLKQKSTQFMRINEAALSSDFLIKRPTSRWMASVLNAIDSVKKNILNGHLEIPTLFILANQNNIANNIEIRQLCQYTHLTDSITITGAELDTIMHEESYQKQFWIAFDAFIRG | not soluble |
| MSLYKQTSIFDAKFDKNRPLADRMRPRTLDEFVGQEHILGKGKALRELIEKDSITSMILWGPPGVGKTTLAMIIANMTNSKFVNFSAVLSGIKEIKEIMAQAERDAMYGQRTVVFIDEIHRFNKAQQDAFLPHVEKGNIILIGATTENPSFEVNSALLSRSKVFMMKPLDVKDIMIILKRALKDEERGLGLYNVEIDEEKLEKIALFSNGDARVALNTLEMAVMAANVVNGKRVVTDEILSDVMQKKALLYDKAGEEHYNLISAFHKSLRNSDWDAALYWMARMLEAGEDPLYIARRMIRFASEDVGLADPQALSVAIAAYEASHYIGMPECSVNLAQAAVYLALAPKSNALYVAYNRVKKDAEETFAEPVPMHLRNAPTKLMKELGYGEGYKYAHDFEEKVTDMECLPENLKGRRYYIPTDSGFEKKLKERMEEILKLKGEGHHHHHH | soluble |
| MGSDKIHHHHHHMFIETLNLSHFRNFSEVALSPSPKINIITGDNGSGKTSLLEAIYLLGFGRSFRPGGFRQLIKEGNSGFTVFCRSQDYAIGVRRSTDGEQSLRLNGANVQRMSDVARLVPVQLLTPESVDILLEGPGQRRQFIDWGVFHVEHSFYSDWVAYTQLLKQRNSLLKQRSLPVREDRYWKEQLAYYGERISKSREKYLEELNDYIQELAKSFLSDVTMEVRLKSGWDTSQSLFDALESHTEKDKKYGFTSVGAHKADIKVIADGVEVKHRLSRGQLKTAITALKLAQGKHYQKIKRQPCIYLVDDLTSELDSKNQALLCRELENLDAQVFITAITGKQLSDKFQKSPRMFHVEHGVINE | not soluble |
| MKILAIINPISGIGSKSNIPSLIADVFAHDPHELFITYSQRAGHARELAAQAVEKHYDCVIAVGGDGTVNEIAQSLRYTDVVLGIVPKGSGNGLARALKLPLTVGKALEVIRAGHVRTIDCCEADSRPFFCTCGLGFDAEVSKKFAQAGSRGPITYARTMIESYLQNEPKEYKLTIDGKSFEEKAFLVTCANAPQYGNNAYIAPLADLEDGKMDVVIIRPFNPLEAPQLALQLFTKRINSNSNLDTYKAENLIIERETEGVMHLDGDPVMFGKRIEIRTYGRSLKVFATETYT | not soluble |
| MGSDKIHHHHHHMIQPVSCICPIAAKLITSRPAQKLLPAPESTTARASEAATSLAAAITAASMCLSTAFILSARVRVTWATWSRISTDTRALSSAITAPPSGCRLNVACSLPRFGRAFQPDARARRTGSFPDRDLISPDLPLPACARAARSWAMTDSRQTPLAQSLPASVPFVGPETHERQRGAPFVARLGANENLFGVSPKAIAAMQASAAEIWKYGDAESYELRAALSALHGIAPEHIMVGEGIDGLLGNLVRLYVGAGDAVVTSLGAYPTFNYHVAGFGGDLHTVPYKDDHEDIKALMAKAHEVGAKLVYLANPDNPMGSWHRGADIVAALDDLPEGSLLVLDEAYVECAPKGTAAPVDVTDPRVIRMRTLSKAYGMAGARVGYAMGAVEVISAFHKVRNHFGMNRCAQIGATEAIKDQAWLAHVQAEIATAREEISRIARENGLTPLPSATNFVAIDCGRDGAFAKAVLEALVARDIFVRMPFAAPQNRCIRVSCGPERERRAFAEALPLALKDAQNGA | not soluble |
| KPAAHLIGDPSKQNSLLWRANTDRAFLQDGFSLSNNSLLVPTSGIYFVYSQVVFSGKAYSPKATSSPLYLAHEVQLFSSQYPFHVPLLSSQKMVYPGLQEPWLHSMYHGAAFQLTQGDQLSTHTDGIPHLVLSPSTVFFGAFAL | soluble |
| SHMEIVPDTSVVIDGRVSDQVKADADPDTDVDGMGFAGATVVVPEAVVGELEAQANDGRETGWEGLEELQTLVDLAEEGTIDVEYVGRRPDAIEKREAGEGQIDALIRDIAGDRDATLVTSDDVQAEVARAKGLAVEFVDPVKRTVDRLQIENFFDEG | not soluble |
